Source: paper PMC10397247

T1: 4H3112-bH
T1 chain: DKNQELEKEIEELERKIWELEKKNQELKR

T2: 4H3843-bH
T2 chain: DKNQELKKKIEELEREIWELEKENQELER

T3: 4H717-bH
T3 chain: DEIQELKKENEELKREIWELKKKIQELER

T4: 4H4001-bH
T4 chain: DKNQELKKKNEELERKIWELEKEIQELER

T5: 4H3185-bH
T5 chain: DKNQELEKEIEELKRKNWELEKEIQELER

T6: 4H3606-bH
T6 chain: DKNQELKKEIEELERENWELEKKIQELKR

T7: 4H953-bH
T7 chain: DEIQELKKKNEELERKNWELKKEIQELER

T8: 4H2667-bH
T8 chain: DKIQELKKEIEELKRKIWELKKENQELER

T9: 4H754-bH
T9 chain: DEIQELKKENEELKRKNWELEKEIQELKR

T10: 4H3354-bH
T10 chain: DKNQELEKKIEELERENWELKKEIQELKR

T11: 4H338-bH
T11 chain: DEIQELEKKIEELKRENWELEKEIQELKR

T12: 4H687-bH
T12 chain: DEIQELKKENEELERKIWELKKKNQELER

T13: 4H953-bA
T13 chain: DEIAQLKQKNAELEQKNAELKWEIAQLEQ

T14: 4H883-bH
T14 chain: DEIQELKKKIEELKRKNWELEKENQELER

T15: 4H2697-bH
T15 chain: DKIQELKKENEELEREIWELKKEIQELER

T16: 4H918-bH
T16 chain: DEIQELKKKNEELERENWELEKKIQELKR

T17: 4H454-bH
T17 chain: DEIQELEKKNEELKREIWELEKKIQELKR

T18: 4H918-bA
T18 chain: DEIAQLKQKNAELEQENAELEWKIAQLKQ

T19: 4H2729-bH
T19 chain: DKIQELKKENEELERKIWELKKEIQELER

T20: 4H3427-bH
T20 chain: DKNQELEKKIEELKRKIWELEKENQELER

T21: 4H462-bH
T21 chain: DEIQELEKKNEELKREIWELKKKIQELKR

T22: 4H2610-bH
T22 chain: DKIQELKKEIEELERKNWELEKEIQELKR

T23: 4H607-bH
T23 chain: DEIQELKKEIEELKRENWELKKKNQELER

T24: 4H3782-bH
T24 chain: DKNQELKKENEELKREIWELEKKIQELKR

T25: 4H3855-bH
T25 chain: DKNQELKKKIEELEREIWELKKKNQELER

T26: 4H370-bH
T26 chain: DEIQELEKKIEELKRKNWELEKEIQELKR

T27: 4H908-bH
T27 chain: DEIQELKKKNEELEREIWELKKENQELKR

T28: 4H3189-bH
T28 chain: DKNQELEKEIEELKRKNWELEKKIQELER

T29: 4H331-bH
T29 chain: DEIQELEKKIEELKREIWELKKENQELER

T30: 4H967-bH
T30 chain: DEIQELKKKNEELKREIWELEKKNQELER

T31: 4H2618-bH
T31 chain: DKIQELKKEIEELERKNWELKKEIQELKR

T32: 4H797-bH
T32 chain: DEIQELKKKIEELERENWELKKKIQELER

T33: 4H568-bH
T33 chain: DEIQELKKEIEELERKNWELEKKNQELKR

T34: 4H72-bH
T34 chain: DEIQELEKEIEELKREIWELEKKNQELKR

T35: 4H2576-bH
T35 chain: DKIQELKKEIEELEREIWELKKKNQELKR

T36: 4H342-bN
T36 chain: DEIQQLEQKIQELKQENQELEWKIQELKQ

T37: 4H3632-bN
T37 chain: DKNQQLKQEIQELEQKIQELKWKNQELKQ

T38: 4H491-bN
T38 chain: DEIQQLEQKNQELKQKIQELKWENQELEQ

T39: 4H4001-bN
T39 chain: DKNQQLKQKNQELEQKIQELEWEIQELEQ

T40: 4H48-bN
T40 chain: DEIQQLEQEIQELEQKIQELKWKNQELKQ

T41: 4H496-bN
T41 chain: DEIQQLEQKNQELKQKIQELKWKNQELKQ

T42: 4H470-bH
T42 chain: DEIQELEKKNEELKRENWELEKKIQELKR

T43: 4H3907-bH
T43 chain: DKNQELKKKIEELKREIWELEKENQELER

T44: 4H363-bH
T44 chain: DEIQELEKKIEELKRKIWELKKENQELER

T45: 4H3961-bH
T45 chain: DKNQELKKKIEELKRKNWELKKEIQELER

T46: 4H3632-bH
T46 chain: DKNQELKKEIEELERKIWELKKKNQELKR

T47: 4H496-bH
T47 chain: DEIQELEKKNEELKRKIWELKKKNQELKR


Key:
Experiment in all cases: two-hybrid library CCNG1;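 note: natural log of median RNA to DNA barcode read ratio; higher means stronger binding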
4H3112-bH = target: T1, 4H3112-bH
4H3843-bH = target: T2, 4H3843-bH
4H717-bH = target: T3, 4H717-bH
4H4001-bH = target: T4, 4H4001-bH
4H3185-bH = target: T5, 4H3185-bH
4H3606-bH = target: T6, 4H3606-bH
4H953-bH = target: T7, 4H953-bH
4H2667-bH = target: T8, 4H2667-bH
4H754-bH = target: T9, 4H754-bH
4H3354-bH = target: T10, 4H3354-bH
4H338-bH = target: T11, 4H338-bH
4H687-bH = target: T12, 4H687-bH
4H953-bA = target: T13, 4H953-bA
4H883-bH = target: T14, 4H883-bH
4H2697-bH = target: T15, 4H2697-bH
4H918-bH = target: T16, 4H918-bH
4H454-bH = target: T17, 4H454-bH
4H918-bA = target: T18, 4H918-bA
4H2729-bH = target: T19, 4H2729-bH
4H3427-bH = target: T20, 4H3427-bH
4H462-bH = target: T21, 4H462-bH
4H2610-bH = target: T22, 4H2610-bH
4H607-bH = target: T23, 4H607-bH
4H3782-bH = target: T24, 4H3782-bH
4H3855-bH = target: T25, 4H3855-bH
4H370-bH = target: T26, 4H370-bH
4H908-bH = target: T27, 4H908-bH
4H3189-bH = target: T28, 4H3189-bH
4H331-bH = target: T29, 4H331-bH
4H967-bH = target: T30, 4H967-bH
4H2618-bH = target: T31, 4H2618-bH
4H797-bH = target: T32, 4H797-bH
4H568-bH = target: T33, 4H568-bH
4H72-bH = target: T34, 4H72-bH
4H2576-bH = target: T35, 4H2576-bH
4H342-bN = target: T36, 4H342-bN
4H3632-bN = target: T37, 4H3632-bN
4H491-bN = target: T38, 4H491-bN
4H4001-bN = target: T39, 4H4001-bN
4H48-bN = target: T40, 4H48-bN
4H496-bN = target: T41, 4H496-bN
4H470-bH = target: T42, 4H470-bH
4H3907-bH = target: T43, 4H3907-bH
4H363-bH = target: T44, 4H363-bH
4H3961-bH = target: T45, 4H3961-bH
4H3632-bH = target: T46, 4H3632-bH
4H496-bH = target: T47, 4H496-bH

Row | interaction score (4H3843-bH) | interaction score (4H4001-bH) | interaction score (4H3606-bH) | interaction score (4H953-bH) | interaction score (4H2667-bH) | interaction score (4H687-bH) | interaction score (4H883-bH) | interaction score (4H2697-bH) | interaction score (4H918-bH) | interaction score (4H462-bH) | interaction score (4H2610-bH) | interaction score (4H607-bH) | interaction score (4H3782-bH) | interaction score (4H370-bH) | interaction score (4H3189-bH) | interaction score (4H331-bH) | interaction score (4H2618-bH) | interaction score (4H797-bH) | interaction score (4H568-bH) | interaction score (4H72-bH) | Binder | other results
1 | 1.11 | 1.28 | -2.37 | -0.152 | 0.467 | -0.475 | -0.465 | -0.201 | -0.721 | 0.615 | -0.788 | -1.37 | -0.128 | 1.62 | 0.969 | 1.97 | 1.01 | -0.961 | 0.102 | 0.621 | DKIQELKKEIEELEREIWELKKKNQELKR [4H2576-bH] | interaction score (4H3112-bH): 0.913; interaction score (4H717-bH): -1.86; interaction score (4H3185-bH): 0.137; interaction score (4H754-bH): -2.65; interaction score (4H3354-bH): -0.952; interaction score (4H338-bH): 0.794; interaction score (4H953-bA): -1.63; interaction score (4H454-bH): 1.67; interaction score (4H918-bA): -0.341; interaction score (4H2729-bH): 1.93; interaction score (4H3427-bH): 1.73; interaction score (4H3855-bH): 0.305; interaction score (4H908-bH): -1.34; interaction score (4H967-bH): -3.3; interaction score (4H2576-bH): 0.71
2 | 0.428 | 0.47 | 0.997 | -1.02 | -0.792 | 0.522 | 1.68 | -0.13 | -0.153 | 1.13 | 1.39 | -0.288 | -0.423 | 1.24 | 0.354 | -0.139 | -2.22 | -0.388 | 1.22 | 0.879 | DKIQELKKEIEELERKNWELEKEIQELKR [4H2610-bH] | 
3 |  |  |  |  |  |  |  |  |  |  |  |  |  |  |  |  |  |  |  |  | DEIQQLEQKIQELKQENQELEWKIQELKQ [4H342-bN] | interaction score (4H342-bN): 1.33; interaction score (4H3632-bN): 0.807; interaction score (4H491-bN): 1.47; interaction score (4H4001-bN): -0.0564; interaction score (4H48-bN): -1.99; interaction score (4H496-bN): 1.56
4 |  |  |  |  |  |  |  |  |  |  |  |  |  |  |  |  |  |  |  |  | DEIQELEKKIEELKRKIWELKKENQELER [4H363-bH] | interaction score (4H470-bH): 0.465; interaction score (4H3907-bH): 1.26; interaction score (4H363-bH): 1.36; interaction score (4H3961-bH): 0.532
5 |  |  |  |  |  |  |  |  |  |  |  |  |  |  |  |  |  |  |  |  | DKNQELKKEIEELERKIWELKKKNQELKR [4H3632-bH] | interaction score (4H3632-bH): -0.234; interaction score (4H496-bH): -2.56
